Test [1] concerns the target T1, human CLEC-1A expressed on the cell membrane (human, UniProt Q8NC01 1-280).
T1 construct: Endogenous on human U266 myeloma cells, on monocyte-derived TGFb-DC and macrophages; on CHO cells after transduction with a Clec-1 expressing lentivirus; also called U266 CLEC1; CLEC-1A on U266 cells
T1 sequence: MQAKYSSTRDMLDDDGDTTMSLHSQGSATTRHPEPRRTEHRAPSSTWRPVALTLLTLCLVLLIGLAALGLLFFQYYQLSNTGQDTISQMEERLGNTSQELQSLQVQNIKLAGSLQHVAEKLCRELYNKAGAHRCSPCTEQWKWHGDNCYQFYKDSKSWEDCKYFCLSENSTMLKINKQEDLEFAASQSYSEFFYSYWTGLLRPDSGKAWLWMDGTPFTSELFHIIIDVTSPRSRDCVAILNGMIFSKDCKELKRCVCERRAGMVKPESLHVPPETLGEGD
Description: flow cytometry on U266 cells. The procedure: (§1) Method: To measure binding of anti-CLEC1 on human U266 cell lines (pre-blocked with Fcblock to blocking FcR), antibodies at different concentrations were incubated for 30 min at 4° C., and washed before stained 30 min at 4° C. with PE-labelled anti-human IgG (Biolegend; reference 409304). Samples were analyzed on Cytoflex cytofluorometer (Beckman Coulter). The MFI of anti-CLEC1 was compared between all anti-CLEC1 antibodies and percentage of stained cells was analysed in all conditions.
For orientation: Flow cytometry measures light scatter and fluorescence of single cells or particles in a stream.

Test [2] deals with T2, recombinant human CLEC-1 protein with His Tag (#1704-CL R&D Systems) (human, UniProt Q8NC01 74-280).
T2 construct: Bought protein; also called His-CLEC1; His Clec-1; not shown: His tag
T2 sequence: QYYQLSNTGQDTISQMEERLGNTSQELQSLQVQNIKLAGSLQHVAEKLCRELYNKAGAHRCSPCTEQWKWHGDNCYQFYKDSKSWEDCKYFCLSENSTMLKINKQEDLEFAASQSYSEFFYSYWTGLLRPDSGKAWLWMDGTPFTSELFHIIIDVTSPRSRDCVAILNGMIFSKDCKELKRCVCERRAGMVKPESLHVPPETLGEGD
Description: ELISA on immobilised His-CLEC1 (from FIGURE 12). Here is the method:
(§2) Method: The binding activity of the anti-hCLEC1 antibodies was assessed by ELISA (Enzyme-linked immunosorbent assay). […] A second ELISA assays was performed, like above, with immobilization of CLEC1-Fc (OSE Immunotherapeutics) at 2 μg/ml. A third ELISA assays was performed to see the cross-reactivity with mouse CLEC1. Like above, ELISA was made with immobilization of mouse Fc-CLEC1 (OSE Immunotherapeutics) at 2 μg/ml in carbonate buffer instead of His-Clec. Purified antibodies were added at different concentrations to measure binding. […] Control antibody is a commercial anti-CLEC-1A antibody.
Background: In an ELISA, binding on a coated surface is turned into a signal by an enzyme label.

In test [3] the target is T1, human CLEC-1A expressed on the cell …. Description: flow cytometry on U266 cells, PE anti-human IgG; % positive cells. The procedure:
as §1

Test [4] has the same target. Description: flow cytometry on U266 cells, PE anti-human IgG; median fluorescence. Here is the method: as §1
The target in test [5] is T2, recombinant human CLEC-1 protein with …. Description: BLI (Blitz), CLEC1-His on Ni-NTA biosensor, antibody at 20 ug/mL; chimeric antibody, FIG. 17. Here is the method:
Analysis was performed with a BLItz System (Fortébio, #C22-2 No 61010-1, Molecular Devices, San José, USA).
The affinity of the anti-hCLEC1 antibodies, was measured with Blitz system (Forté Bio, C22-2 No 61010-1).

Test [6] has the same target. Description: Blitz biolayer interferometry, His-CLEC1 on Ni-NTA biosensor, antibody at 20 ug/mL. In general terms: BLI is a label-free optical method that tracks binding on a fibre tip over time.
Test [7] has as its target T3, Fc-CLEC1 labelled with Alexa Fluor 488 (human, Alexa Fluor 488 label (sites not given)).
T3 construct: also called Fc-CLEC1-A488; Alexa488-Fc-Clec-1
T3 chain: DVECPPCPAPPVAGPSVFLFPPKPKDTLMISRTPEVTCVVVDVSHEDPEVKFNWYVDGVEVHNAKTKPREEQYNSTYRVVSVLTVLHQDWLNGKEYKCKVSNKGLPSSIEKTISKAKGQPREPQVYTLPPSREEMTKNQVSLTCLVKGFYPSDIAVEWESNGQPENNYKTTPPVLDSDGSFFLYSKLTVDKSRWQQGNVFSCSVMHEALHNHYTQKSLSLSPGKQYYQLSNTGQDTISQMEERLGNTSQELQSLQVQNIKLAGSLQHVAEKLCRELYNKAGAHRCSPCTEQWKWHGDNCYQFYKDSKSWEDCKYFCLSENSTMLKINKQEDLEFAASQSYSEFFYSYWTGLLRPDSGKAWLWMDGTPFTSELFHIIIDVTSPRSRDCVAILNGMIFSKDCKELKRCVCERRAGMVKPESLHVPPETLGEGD
Description: FACS competition: blocks Fc-CLEC1-A488 (10 nM) binding to CLEC-1 ligand on UV-treated PBMC. Here is the method:
(§3) Competition were also measured on UV pre-treated pro-apoptotic human PBMCs, which can also express the ligand after a treatment under UV radiation for 18 hours. After UV treatment, cells were first washed in cold-PSE and then blocked during 30 min at room temperature with human Fc-block 50-fold diluted in PSE, and then replaced on ice. Purified anti-Clec antibodies at different concentrations were pre-incubated with Alexa488-Fc-Clec-1 in PSE at different concentrations for 15 min at room temperature. Pre-incubated mixes were then incubated on Fc-blocked/SAB (#34005-100, Invitrogen, Illkirch, France) pro-apoptotic PBMCs for 30 min on ice. Binding on cells were then fixed by PFA 2% in cold PBS for 10 min on ice and analyzed on CytoFlex cytofluorometer (Beckman Coulter France, Villepinte).
(§4) Methods. To measure competition on permeabilised Raji (CytoFix/cytoperm kit, BD Biosciences) which expressed CLEC1 ligand, Fc-CLEC1-labelled A488 which bound specifically to permeabilised Raji was used. To measure competition, Fc-CLEC1 labelled A488 at 10 nM or 20 nM was mixed with mouse anti-hCLEC1 at different concentrations for 15 min at RT then added on these cells for 30 min at 4° C. […] To measure competition on PMBC, we used human PBMC pre-treated by UV for 18 h to obtain apoptotic PBMC, which expressed CLEC1 ligand. Fc-CLEC1-labelled A488 bound specifically apoptotic UV-treated PBMC. To measure competition, Fc-CLEC1 labelled A488 at 10 nM was mixed with mouse anti-hCLEC1 at different concentrations for 15 min at RT then added on these cells for 30 min at 4° C.

Test [8] deals with T3, Fc-CLEC1 labelled with Alexa Fluor 488. Description: FACS competition: blocks Fc-CLEC1-A488 (10 nM) binding to CLEC-1 ligand on UV-treated PBMC; % binding. Here is the method:
as §3, §4

Test [9] shares this target. Description: FACS competition: blocks Fc-CLEC1-A488 (10 nM) binding to CLEC-1 ligand on permeabilised Raji cells; IC50 median. The procedure:
(§5) To measure competition, purified anti-Clec antibodies at different concentrations were pre-incubated in Perm Wash Buffer with Alexa488-Fc-Clec-1 for 15 min at room temperature. Pre-incubated mixes were then incubated on permeabilized and Fc-blocked Raji cells for 30 min on ice. Binding on cells were then fixed by PFA 2% in cold PBS for 10 min on ice and analyzed on CytoFlex cytofluorometer (Beckman Coulter France, Villepinte).
as §4

For test [10] the target is unchanged. Description: FACS competition: blocks Fc-CLEC1-A488 (10 nM) binding to CLEC-1 ligand on permeabilised Raji cells; % binding cells. The procedure:
as §5, §4

The target in test [11] is T2, recombinant human CLEC-1 protein with …. Description: ELISA on immobilised His-CLEC1 (from FIGURE 14). Here is the method: as §2
Test [12] addresses T1, human CLEC-1A expressed on the cell …. Description: flow cytometry on CHO-Clec-1 cells (from FIGURE 21). The procedure: To measure binding of anti-clec on CHO-Clec-1 cells, human Fc Receptor Binding Inhibitor diluted at 1/200 (BD pharmingen; USA; reference 564220) was first added for 30 min at room-temperature to block human Fc receptors on CHO-Clec-1 cells to reduce background. Then, antibodies were incubated for 30 min at 4° C., and washed before stained 15 min at 4° C. with PE-labelled anti-human IgG Fc (Biolegend; USA; reference 409303). Samples were analyzed on citoflex (Beckman coulter)

For test [13], the target named is T2, recombinant human CLEC-1 protein with …. Description: ELISA on immobilised His-CLEC1, anti-human IgG peroxidase.

B1: chimeric anti-CLEC-1A antibody 5D1 (antibody, human IgG4 S228P, kappa, V domains shown)
VH: QVQLKESGPGLVAPSQSLSITCTISGFSLTSYGVHWVRQPPGKGLEWLVVIWSDGSTIYNSALKSRLSISKDNSKSQVFLKMNSLQTDDTAMYYCARHGGYYNYFDYWGQGTTLTVSS
VL: DIQMNQSPSSLSASLGDTITITCHASQNINVWLSWYQQKPGNIPKLLIYKASNLHTGVPSRFSGSGSGTGFTLTISSLQPEDIATYYCQQGQSYWTFGGGTKLEIKR
notes: also called 5D1chim; 5D1-VHwt-FcG4m / 5D1-VLwt-CLhk
By EC50 is commonly meant the concentration at which the effect is half-maximal. As a reminder, the EC50 (read off the curve) is the concentration at which the effect is half-maximal. As usually defined, the Kd is the constant that tells how readily two partners part at equilibrium. As a reminder, the koff is the rate constant with which the complex falls apart. One may read the kon as the rate constant with which the complex forms. Usually IC50 stands for the concentration at which inhibition is half-maximal. A higher IC50 goes with weaker potency in that assay. B1: the concentration giving a half-maximal response (EC50) in [1] was 0.0847 µg/mL; in test [2] it was 0.164 µg/mL. Besides, the “EC50 (read off the curve)” value in test [3] and in [4] was ~0.06 µg/mL throughout. Further, the dissociation constant Kd in test [5] was ~10 nM; in test [6] it was 17.4 nM. Further, the off-rate constant (koff) in test [6] was 0.0012 s⁻¹. Also, in test [6], the on-rate constant (kon) came out at 68900 M⁻¹ s⁻¹. The IC50 turned out to be 1.19 µg/mL in [7] and 13.7 nM in [9]. Further, the entries for the “IC50 (read off the curve)” value in [8] and in [10] were ~0.8 µg/mL and ~10 nM, respectively.

B2: chimeric anti-CLEC-1A antibody 11H11 (antibody, human IgG4 S228P, kappa, V domains shown)
VH: QIHLVQSGPELKKPGETVKISCKASGYTFTNFGMNWVKQAPGKGLKWMGWINTNTGEPTYADDFKGRFAFSLETSASTAYLQINNLKNEDTATYFCARGAPAWFTYWGQGTLVTVSA
VL: DIQMTQSPASLSASVGETVTITCRATENIYSYLAWYQQKQGKSPQFLVYNAKTLAEGMPSRFSGSGSGTQFSLKINILQPEDFGTYYCQHHFGTPLTFGAGTKLELKR
notes: also called 11H11chim; 11H11-VHwt-FcG4m / 11H11-VLwt-CLhk
With B2, in test [1], the concentration giving a half-maximal response (EC50) came out at 1.12 µg/mL. The half-maximal effective concentration (EC50) in [11] came to 0.00846 µg/mL. A half-maximal response in [12] (EC50) required 1.38 µg/mL. In addition, in test [6], the Kd is 0.448 nM, the koff turned out to be 0.00019 s⁻¹ and the kon worked out at 188000 M⁻¹ s⁻¹. The molecule further yielded an IC50 in [9] of 5.84 nM.

B3: chimeric anti-CLEC-1A antibody 15E3 (antibody, human IgG4 S228P, kappa, V domains shown)
VH: QVQLQQSGPELVKPGASVKMSCKASGFTFTDYVIAWVKVRTGQGLEWIGEIYPGSGSIYYNEKFKGKATLTADKSSNTAYMQLSSLTSEDSAVYFCASSTVVAFDYWGQGTTLTVSS
VL: EIVLTQSPTTLAASPGEKIIITCSDSSSISSNYLHWYQQKPGFSPKLLIYGTSNLASGVPARFSGSGSGTTYSLTIGTMEAEDVATYYCQQGSSIPRTFGGGTKLEIKR
notes: also called 15E3chim; 15E3-VHwt-FcG4m / 15E3-VLwt-CLhk
Regarding B3, the EC50 came to 0.251 µg/mL in [1], 0.0215 µg/mL in [2] and 0.123 µg/mL in test [12]. In test [13], the concentration for a half-maximal effect (EC50 (read off the curve)) was ~0.02 µg/mL. Moreover, in test [6], the dissociation constant Kd is 108 nM. Moreover, the koff in [6] came to 0.00169 s⁻¹. Also, the on-rate (kon) in [6] amounted to 15700 M⁻¹ s⁻¹. The 50% inhibitory concentration (IC50) came to 0.779 µg/mL in test [7] and 8.67 nM in test [9]. For the same molecule, in [8], the “IC50 (read off the curve)” value is ~1 µg/mL.

Values taken from patent publication US20230331852A1 (OSE IMMUNOTHERAPEUTICS, published 2023).
